Laboratory results: article PMC10201424, “Biochemical characterisation of Mer3 helicase interactions and the protection of meiotic recombination intermediates” (Nucleic Acids Research, 2022)

Columns and labels:
[1] = biological target: T1, Mer3 (Saccharomyces cerevisiae, UniProt P51979 1-1187); experiment: EMSA; no Mg or ATP; high affinity; EMSA: 25 mM HEPES pH 7.5, 0.1 ug/ul BSA, 60 mM NaCl, 10 nM DNA, 20 min at 30 C; 0.8% agarose in 1x TAE; Mer3 37.5-300 nM, Mlh1-Mlh2 20-150 nM; conditions: protein: recombinant; tags: C-terminal Twin-StrepII; label: 5'-FAM on strand 1; synthetic D-loop of 4 annealed oligos
T1 sequence: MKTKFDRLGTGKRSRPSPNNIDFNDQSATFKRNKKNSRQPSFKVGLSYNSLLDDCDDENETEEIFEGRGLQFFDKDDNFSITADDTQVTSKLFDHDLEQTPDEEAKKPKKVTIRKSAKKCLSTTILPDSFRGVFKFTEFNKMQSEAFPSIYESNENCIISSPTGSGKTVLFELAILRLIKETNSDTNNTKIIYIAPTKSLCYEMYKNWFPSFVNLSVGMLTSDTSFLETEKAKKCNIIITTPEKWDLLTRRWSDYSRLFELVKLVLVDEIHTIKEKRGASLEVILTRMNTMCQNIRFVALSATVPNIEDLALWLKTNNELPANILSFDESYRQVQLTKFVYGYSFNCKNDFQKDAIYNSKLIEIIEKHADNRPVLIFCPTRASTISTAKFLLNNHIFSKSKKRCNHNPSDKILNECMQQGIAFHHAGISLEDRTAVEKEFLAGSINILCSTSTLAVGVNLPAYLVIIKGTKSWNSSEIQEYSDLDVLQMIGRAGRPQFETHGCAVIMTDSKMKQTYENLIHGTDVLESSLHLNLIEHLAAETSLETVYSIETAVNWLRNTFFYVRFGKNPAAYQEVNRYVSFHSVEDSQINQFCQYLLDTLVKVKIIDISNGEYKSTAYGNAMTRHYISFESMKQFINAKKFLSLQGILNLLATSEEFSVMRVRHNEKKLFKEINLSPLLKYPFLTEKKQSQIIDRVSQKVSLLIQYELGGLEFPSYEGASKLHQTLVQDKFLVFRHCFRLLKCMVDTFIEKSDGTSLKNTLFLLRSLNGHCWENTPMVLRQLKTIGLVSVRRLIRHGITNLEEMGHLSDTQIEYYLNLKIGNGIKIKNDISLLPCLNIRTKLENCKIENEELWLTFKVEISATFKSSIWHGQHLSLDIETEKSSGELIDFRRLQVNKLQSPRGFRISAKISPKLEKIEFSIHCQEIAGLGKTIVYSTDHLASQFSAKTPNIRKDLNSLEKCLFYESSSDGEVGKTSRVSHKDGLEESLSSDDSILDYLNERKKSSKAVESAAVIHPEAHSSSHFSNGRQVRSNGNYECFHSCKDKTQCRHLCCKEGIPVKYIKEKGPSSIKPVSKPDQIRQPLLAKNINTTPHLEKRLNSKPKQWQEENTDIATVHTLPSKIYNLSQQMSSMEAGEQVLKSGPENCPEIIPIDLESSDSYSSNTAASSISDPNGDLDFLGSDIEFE

[2] = biological target: T2, His-Mlh1;Strep-Mlh2 (Saccharomyces cerevisiae;Saccharomyces …, UniProt P38920;Q07980 1-769;1-695, |); experiment: EMSA; robust binding; EMSA: 25 mM HEPES pH 7.5, 0.1 ug/ul BSA, 60 mM NaCl, 10 nM DNA, 20 min at 30 C; 0.8% agarose in 1x TAE; Mer3 37.5-300 nM, Mlh1-Mlh2 20-150 nM; conditions: protein: recombinant;recombinant; tags: N-terminal 6xHis;N-terminal Twin-StrepII; copies: 1;1; label: 5'-FAM on strand 1; synthetic D-loop of 4 annealed oligos
T2 sequence 1: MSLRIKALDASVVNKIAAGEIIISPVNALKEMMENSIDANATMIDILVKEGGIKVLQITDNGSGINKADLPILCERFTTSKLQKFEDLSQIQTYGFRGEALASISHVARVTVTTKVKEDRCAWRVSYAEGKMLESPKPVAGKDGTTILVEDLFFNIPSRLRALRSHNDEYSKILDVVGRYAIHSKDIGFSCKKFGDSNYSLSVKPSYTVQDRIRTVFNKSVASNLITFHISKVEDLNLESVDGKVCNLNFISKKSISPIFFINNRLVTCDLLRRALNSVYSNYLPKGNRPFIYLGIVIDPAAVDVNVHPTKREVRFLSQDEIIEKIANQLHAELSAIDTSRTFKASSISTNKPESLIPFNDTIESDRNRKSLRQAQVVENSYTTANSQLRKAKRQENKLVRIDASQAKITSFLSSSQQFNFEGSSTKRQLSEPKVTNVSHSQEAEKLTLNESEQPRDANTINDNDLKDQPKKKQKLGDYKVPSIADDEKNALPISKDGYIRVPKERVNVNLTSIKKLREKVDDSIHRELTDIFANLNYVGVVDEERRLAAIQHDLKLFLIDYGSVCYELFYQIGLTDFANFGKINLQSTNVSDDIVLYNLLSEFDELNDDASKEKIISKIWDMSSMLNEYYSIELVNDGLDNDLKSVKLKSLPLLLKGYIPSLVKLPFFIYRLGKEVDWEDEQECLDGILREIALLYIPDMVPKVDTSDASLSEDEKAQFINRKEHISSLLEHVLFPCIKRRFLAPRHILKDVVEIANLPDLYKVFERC
T2 sequence 2: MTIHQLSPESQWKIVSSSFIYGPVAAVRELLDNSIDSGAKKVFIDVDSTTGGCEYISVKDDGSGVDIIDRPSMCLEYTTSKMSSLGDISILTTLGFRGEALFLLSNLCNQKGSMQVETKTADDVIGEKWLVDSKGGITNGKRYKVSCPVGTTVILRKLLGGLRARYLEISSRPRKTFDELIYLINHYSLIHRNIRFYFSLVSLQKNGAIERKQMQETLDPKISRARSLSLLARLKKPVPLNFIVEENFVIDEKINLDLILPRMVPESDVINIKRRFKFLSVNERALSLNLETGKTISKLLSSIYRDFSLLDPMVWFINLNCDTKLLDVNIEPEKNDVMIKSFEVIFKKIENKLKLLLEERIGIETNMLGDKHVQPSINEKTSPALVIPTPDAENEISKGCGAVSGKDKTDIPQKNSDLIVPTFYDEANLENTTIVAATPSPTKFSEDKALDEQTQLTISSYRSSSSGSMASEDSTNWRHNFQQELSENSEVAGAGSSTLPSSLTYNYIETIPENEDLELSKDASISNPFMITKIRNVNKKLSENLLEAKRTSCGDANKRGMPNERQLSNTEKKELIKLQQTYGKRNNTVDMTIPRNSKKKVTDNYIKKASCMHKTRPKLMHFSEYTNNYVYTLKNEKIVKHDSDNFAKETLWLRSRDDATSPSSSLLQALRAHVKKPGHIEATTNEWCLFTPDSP

[3] = biological target: T3, MBP-Mlh1;MBP-Mlh2 (Saccharomyces cerevisiae;Saccharomyces …, UniProt P38920;Q07980 1-769;1-695, |); experiment: as above; conditions: protein: recombinant;recombinant; tags: N-terminal 6xHis-MBP;N-terminal 6xHis-MBP; copies: 1;1; label: 5'-FAM on strand 1; synthetic D-loop of 4 annealed oligos
T3 sequence 1: T2 sequence 1
T3 sequence 2: T2 sequence 2

Measured: binding result

B1: D-loop (1253-T, 315, 320, X12-3SC) (mixed)
DNA 1: GGGTCAACGTGGGCAAAGATGTCCTAGCAATGTAATCGTCTATGACGTT
DNA 2: AACGTCATAGACGATGATCCGATGCATATCCGCCTGCCCACGTTGACCC
DNA 3: GCGATAGTCTCTAGACAGCATGTCCTAGCAATACATTGCTAGGACATCTT
DNA 4: TTGCTAGGACATGCTGTCTAGAGACTATCGC
binds: all assays above
